# According to patent US20230052369A1 (Zymeworks, published 2023):
# Substitutions are numbered along the chain they refer to.
# B1: v23664 (bispecific antibody, human IgG1, kappa, L234A L235A)
# heavy 1: QVQLQESGPGLVQPTQSLSITCTVSGFSLISYGVHWVRQSPGKGLEWLGVIWSGGSTDYNAAFISRLSISKDNSKSQVFFKMNSLQADDTAIYYCARNPLTATVMDYWGQGTSVTVSSASTKGPSVFPLAPSSKSTSGGTAALGCLVKDYFPEPVTVSWNSGALTSGVHTFPAVLQSSGLYSLSSVVTVPSSSLGTQTYICNVNHKPSNTKVDKKVEPKSCDKTHTCPPCPAPEAAGGPSVFLFPPKPKDTLMISRTPEVTCVVVSVSHEDPEVKFNWYVDGVEVHNAKTKPREEQYNSTYRVVSVLTVLHQDWLNGKEYKCKVSNKALPAPIEKTISKAKGQPREPQVYVYPPSRDELTKNQVSLTCLVKGFYPSDIAVEWESNGQPENNYKTTPPVLDSDGSFALVSKLTVDKSRWQQGNVFSCSVMHEALHNHYTQKSLSLSPGGGGGDIVMTQTPSSVSAAVGGTVTIKCQASQTIGSSLAWYQQKPGQPPKLLIYRASTLASGVSSRFRGSGSGTEYTLTISDLECADAATYYCQWTDYGYIYIWAFGGGTEVVVKGGGGSGGGGSGGGGSQEQLVESGGGLVQPEGSLTLTCTASKFSFSSLYYMCWVRQAPGKGLEWIACVYGGSSGNTYYASWAKGRFTISKASSTTVTLQLTSLTAADTATYFCARFDVDGSGFNLWGPGTLVTVSS
# heavy 2: QVQLQESGPGLVQPTQSLSITCTVSGFSLISYGVHWVRQSPGKGLEWLGVIWSGGSTDYNAAFISRLSISKDNSKSQVFFKMNSLQADDTAIYYCARNPLTATVMDYWGQGTSVTVSSASTKGPSVFPLAPSSKSTSGGTAALGCLVKDYFPEPVTVSWNSGALTSGVHTFPAVLQSSGLYSLSSVVTVPSSSLGTQTYICNVNHKPSNTKVDKKVEPKSCDKTHTCPPCPAPEAAGGPSVFLFPPKPKDTLMISRTPEVTCVVVSVSHEDPEVKFNWYVDGVEVHNAKTKPREEQYNSTYRVVSVLTVLHQDWLNGKEYKCKVSNKALPAPIEKTISKAKGQPREPQVYVLPPSRDELTKNQVSLLCLVKGFYPSDIAVEWESNGQPENNYLTWPPVLDSDGSFFLYSKLTVDKSRWQQGNVFSCSVMHEALHNHYTQKSLSLSPG
# light: DIVMTQSQKFMSTSVGDRVSVTCKASQNVGTNVAWYQQKPGQSPKALIYSASYRDSGVPDRFTGSGSGTDFTLTISNVQSEDLAEYLCQQYNSYPLTFGAGTKLELKRTVAAPSVFIFPPSDEQLKSGTASVVCLLNNFYPREAKVQWKVDNALQSGNSQESVTEQDSKDSTYSLSSTLTLSKADYEKHKVYACEVTHQGLSSPVTKSFNRGEC
# notes: also called 5G8 x 1H06 (VLVH) 2x1
# B2: v23665 (bispecific antibody, human IgG1, kappa, L234A L235A)
# heavy 1: QVQLKESGPGLVAPSQSLSITCTVSGFSLTSYAISWVRQPPGKGLEWLGVIWPGGGTNYNSALKSRLSISKDNSKSQVFLKMNSLQTDDTARYYCARGTGTWYFDVWGAGTTVTVSSASTKGPSVFPLAPSSKSTSGGTAALGCLVKDYFPEPVTVSWNSGALTSGVHTFPAVLQSSGLYSLSSVVTVPSSSLGTQTYICNVNHKPSNTKVDKKVEPKSCDKTHTCPPCPAPEAAGGPSVFLFPPKPKDTLMISRTPEVTCVVVSVSHEDPEVKFNWYVDGVEVHNAKTKPREEQYNSTYRVVSVLTVLHQDWLNGKEYKCKVSNKALPAPIEKTISKAKGQPREPQVYVYPPSRDELTKNQVSLTCLVKGFYPSDIAVEWESNGQPENNYKTTPPVLDSDGSFALVSKLTVDKSRWQQGNVFSCSVMHEALHNHYTQKSLSLSPGGGGGDIVMTQTPSSVSAAVGGTVTIKCQASQTIGSSLAWYQQKPGQPPKLLIYRASTLASGVSSRFRGSGSGTEYTLTISDLECADAATYYCQWTDYGYIYIWAFGGGTEVVVKGGGGSGGGGSGGGGSQEQLVESGGGLVQPEGSLTLTCTASKFSFSSLYYMCWVRQAPGKGLEWIACVYGGSSGNTYYASWAKGRFTISKASSTTVTLQLTSLTAADTATYFCARFDVDGSGFNLWGPGTLVTVSS
# heavy 2: QVQLKESGPGLVAPSQSLSITCTVSGFSLTSYAISWVRQPPGKGLEWLGVIWPGGGTNYNSALKSRLSISKDNSKSQVFLKMNSLQTDDTARYYCARGTGTWYFDVWGAGTTVTVSSASTKGPSVFPLAPSSKSTSGGTAALGCLVKDYFPEPVTVSWNSGALTSGVHTFPAVLQSSGLYSLSSVVTVPSSSLGTQTYICNVNHKPSNTKVDKKVEPKSCDKTHTCPPCPAPEAAGGPSVFLFPPKPKDTLMISRTPEVTCVVVSVSHEDPEVKFNWYVDGVEVHNAKTKPREEQYNSTYRVVSVLTVLHQDWLNGKEYKCKVSNKALPAPIEKTISKAKGQPREPQVYVLPPSRDELTKNQVSLLCLVKGFYPSDIAVEWESNGQPENNYLTWPPVLDSDGSFFLYSKLTVDKSRWQQGNVFSCSVMHEALHNHYTQKSLSLSPG
# light: DIQMTQTTSSLSASLGDRVTISCSASQGISNYLNWYQQKPDGTVKLLIYYTSSLHSGVPSRFSGSGSGTDYSLTISNLEPEDIATYYCQQYSDLPWTFGGGTKLEIKRTVAAPSVFIFPPSDEQLKSGTASVVCLLNNFYPREAKVQWKVDNALQSGNSQESVTEQDSKDSTYSLSSTLTLSKADYEKHKVYACEVTHQGLSSPVTKSFNRGEC
# notes: also called 6B3 x 1H06 (VLVH) 2x1
# B3: v23663 (bispecific antibody, human IgG1, kappa, L234A L235A)
# heavy 1: B2 heavy 1 with S35N, I51L, T99S
# heavy 2: B2 heavy 2 with S35N, I51L, T99S
# light: B2 light with I21F, S56L, D93K
# notes: also called 4E6 x 1H06 (VLVH) 2x1
# B4: v23661 (bispecific antibody, human IgG1, kappa, L234A L235A)
# heavy 1: B2 heavy 1 with S31T, V50I, K75R, T99A
# heavy 2: B2 heavy 2 with S31T, V50I, K75R, T99A
# light: B2 light with T7S, L15V, D93K, L94F
# notes: also called 1C8 x 1H06 (VLVH) 2x1
# B5: v28725 (antibody, human IgG1, kappa, L234A L235A, V domains shown)
# VH: EVQLVESGGGLIQPGGSLRLSCAVSGFSLTTYAISWVRQAPGKGLEWLGIIWPGGGTNYADSVKGRFTISKDNSKNTLYLQMNSLRAEDTAVYYCARGAGTWYFDVWGQGTLVTVSS
# VL: DIQMTQSPSSLSASVGDRVTITCSASQGISNYLNWYQQKPGKAPKLLIYYTSSLHSGVPSRFSGSGSGTDYTLTISSLQPEDIATYYCQQYSKFPWTFGQGTKLEIKR
# notes: also called humanized 1C8 H7L2
# B6: v28723 (antibody, human IgG1, kappa, L234A L235A, V domains shown)
# VH: B5 VH with K71R
# VL: B5 VL with A43T, P44V
# notes: also called humanized 1C8 H6L3
# B7: v28719 (antibody, human IgG1, kappa, L234A L235A, V domains shown)
# VH: B5 VH with V24A, L48V, G49S, K71R
# VL: B5 VL
# notes: also called humanized 1C8 H5L2
# B8: v28721 (antibody, human IgG1, kappa, L234A L235A, V domains shown)
# VH: B5 VH with K71R
# VL: B5 VL with Y71F, L73F, L104V
# notes: also called humanized 1C8 H6L1
# B9: v28722 (antibody, human IgG1, kappa, L234A L235A, V domains shown)
# VH: B5 VH with K71R
# VL: B5 VL
# notes: also called humanized 1C8 H6L2
# B10: v28717 (antibody, human IgG1, kappa, L234A L235A, V domains shown)
# VH: B5 VH with V24A, L48V, G49S, K71R
# VL: B5 VL with Y71F, L73F, L104V
# notes: FSA format, human IgG1/kappa; also called humanized 1C8 H5L1
# B11: v28724 (antibody, human IgG1, kappa, L234A L235A, V domains shown)
# VH: B5 VH
# VL: B5 VL with Y71F, L73F, L104V
# notes: also called humanized 1C8 H7L1
# B12: v28720 (antibody, human IgG1, kappa, L234A L235A, V domains shown)
# VH: B5 VH with V24A, L48V, G49S, K71R
# VL: B5 VL with A43T, P44V
# notes: also called humanized 1C8 H5L3
# B13: v28695 (antibody, human IgG1, kappa, L234A L235A, V domains shown)
# VH: QVQLQESGPGLVKPSETLSLTCTVSGFSLISYGVHWIRQPPGKGLEWIGVIWSGGSTDYNPSLKSRVTISVDTSKNQFSLKLSSVTAADTAVYYCARNPLTATVMDYWGQGTLVTVSS
# VL: DIQMTQSPSSLSASVGDRVTITCRASQNVGTNVAWFQQKPGKAPKSLIYSASYRDSGVPSRFSGSGSGTDFTLTISSLQPEDFATYYCQQYNSYPLTFGGGTKVEIKR
# notes: also called humanized 5G8 H1L1
# Molecular target: T1, full-length human FRα, on 293E cells (human, UniProt P15328 25-234)
# T1 construct: also called folate receptor alpha; FOLR1
# Assay: flow cytometry, 293E cells expressing FRα
# Experimental: Antibodies were diluted in 50 μl FB (PBS 2% FCS) 1:3 from stock in wells of a 96 V-well plate, and cells added on top. The cells were then left on ice for 30 minutes for the antibodies to bind. The cells were then washed twice in FB, and incubated in 50 μl FB containing 2 μg/ml goat anti-human Alexa647 antibody (Jackson Immunoresearch). The cells were then left on ice for a further 20 minutes, washed twice in FB, resuspended in 100 μl FB and analyzed on a BD Fortessa™ X20. The subsequent data files were analyzed using FlowJo™ and Prism 7 (GraphPad).
# T1 sequence (P15328 25-234 limits assumed): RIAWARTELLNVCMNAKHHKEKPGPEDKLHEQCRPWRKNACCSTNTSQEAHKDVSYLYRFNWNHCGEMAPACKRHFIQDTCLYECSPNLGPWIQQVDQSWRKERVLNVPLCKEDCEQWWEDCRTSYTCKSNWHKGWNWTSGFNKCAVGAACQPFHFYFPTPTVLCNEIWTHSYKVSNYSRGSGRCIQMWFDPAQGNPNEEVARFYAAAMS
row,binding result,Binder
1,binds,B1
2,binds,B2
3,binds,B3
4,binds,B4

# Molecular target: T2, purified human monomeric 4-1BB (human, UniProt Q07011 24-186)
# T2 construct: the assay used the 4-1BB part released by Factor Xa with the Fc removed; also called h4-1BB; human 4-1BB
# Assay: SPR, Ab captured, monomeric 4-1BB injected
# Experimental: (§1) The anti-human Fc surface was prepared on a CMS Series S sensorchip by standard amine coupling methods as described by the manufacturer (GE Healthcare). Briefly, immediately after EDC/NHS activation, a 25 μg/mL solution of anti-human Fc in 10 mM NaOAc pH 4.5 was injected at a flow rate of 10 μL/min for 420 s until approximately 2000 resonance units (RUs) were immobilized on all four flow cells. The remaining active groups were quenched by a 420 s injection of 1M ethanolamine at 10 μL/min.
# (§2) Antibodies for analysis were captured onto the anti-Fc surface by injecting 5 μg/mL solutions at a flow rate of 10 μL/min for 60 s. Using single-cycle kinetics, five concentrations of a two-fold dilution series of 4-1BB starting at 40 nM (for both supernatant and purified antibody runs) with a blank buffer control were sequentially injected at 40 μL/min for 180 s with a 600 s dissociation phase, resulting in a set of sensorgrams with a buffer blank reference. Experiments were performed at a constant temperature of 25° C. The anti-human Fc surfaces were regenerated to prepare for the next injection cycle by one pulse of 10 mM Glycine/HCl pH 1.5 for 120 s at 40 μL/min. Blank-subtracted sensorgrams were analyzed using Biacore™ T200 Evaluation Software v3.0. The blank-subtracted sensorgrams were then fit to the 1:1 Langmuir binding model.
# Protein material post protein-A or SEC was assessed for binding to human 4-1BB.
# T2 sequence (Q07011 other isoform, or with tags, fused parts or gaps limits assumed): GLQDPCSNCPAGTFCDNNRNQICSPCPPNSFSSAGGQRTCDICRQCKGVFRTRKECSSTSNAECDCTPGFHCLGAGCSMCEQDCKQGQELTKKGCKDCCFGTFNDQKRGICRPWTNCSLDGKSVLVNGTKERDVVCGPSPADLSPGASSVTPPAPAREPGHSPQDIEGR
row,binding result,Binder
1,no binding,B5
2,no binding,B6
3,no binding,B7
4,no binding,B8
5,no binding,B9
6,no binding,B10
7,no binding,B11
8,no binding,B12
9,no binding,B13

# Molecular target: T2, purified human monomeric 4-1BB
# Assay: SPR, Ab captured, monomeric 4-1BB injected
# Remark: another data set of the same source
# Experimental: as §1, §2
# Variants purified by SEC were assessed for binding to human 4-1BB.
row,Kd,Binder
1,220 nM,B1
2,464 nM,B2
3,502 nM,B3
4,535 nM,B4
